{
  "source": "patent US20080085261A1",
  "about": "“Vaccine Adjuvant” (priority 2004, published 2008)",
  "molecules": {"B1": {"name": "daclizumab (antibody, chains of the INN, looked up, V domains shown)", "VH": "QVQLVQSGAEVKKPGSSVKVSCKASGYTFTSYRMHWVRQAPGQGLEWIGYINPSTGYTEYNQKFKDKATITADESTNTAYMELSSLRSEDTAVYYCARGGGVFDYWGQGTLVTVSS", "VL": "DIQMTQSPSTLSASVGDRVTITCSASSSISYMHWYQQKPGKAPKLLIYTTSNLASGVPARFSGSGSGTEFTLTISSLQPDDFATYYCHQRSTYPLTFGQGTKVEVK"}},
  "tested_on": "T regulatory phenotype cells",
  "set-up": "species or system non-human primate",
  "settings": "in vivo",
  "data": [
    {"molecule": "B1", "values": [
      {"measurement": "time of maximum depletion in % and number of T regulatory phenotype cells", "result": 2, "unit": "weeks"},
      {"measurement": "time until which depletion of T regulatory phenotype cells lasted", "result": 4, "unit": "weeks"}
    ]}
  ]
}
